B1: Non-structural maintenance of chromosomes element 3 homolog (Homo sapiens), Q96MG7 (parent)
chain: MLQKPRNRGRSGGQAERDRDWSHSGNPGASRAGEDARVLRDGFAEEAPSTSRGPGGSQGSQGPSPQGARRAQAAPAVGPRSQKQLELKVSELVQFLLIKDQKKIPIKRADILKHVIGDYKDIFPDLFKRAAERLQYVFGYKLVELEPKSNTYILINTLEPVEEDAEMRGDQGTPTTGLLMIVLGLIFMKGNTIKETEAWDFLRRLGVYPTKKHLIFGDPKKLITEDFVRQRYLEYRRIPHTDPVDYEFQWGPRTNLETSKMKVLKFVAKVHNQDPKDWPAQYCEALADEENRARPQPSGPAPSS
partner: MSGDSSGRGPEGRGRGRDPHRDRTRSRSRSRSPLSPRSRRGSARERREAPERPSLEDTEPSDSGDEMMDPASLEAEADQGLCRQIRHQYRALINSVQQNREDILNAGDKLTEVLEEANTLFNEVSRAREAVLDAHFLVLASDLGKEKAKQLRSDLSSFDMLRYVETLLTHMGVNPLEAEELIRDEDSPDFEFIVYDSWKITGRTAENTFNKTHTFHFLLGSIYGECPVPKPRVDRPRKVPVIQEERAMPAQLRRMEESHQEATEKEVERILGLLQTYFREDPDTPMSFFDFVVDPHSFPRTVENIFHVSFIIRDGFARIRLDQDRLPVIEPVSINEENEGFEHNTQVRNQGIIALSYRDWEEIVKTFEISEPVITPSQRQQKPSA
B2: Non-structural maintenance of chromosomes element 3 homolog (Homo sapiens), Q96MG7 (parent)
chain: B1 chain
partner: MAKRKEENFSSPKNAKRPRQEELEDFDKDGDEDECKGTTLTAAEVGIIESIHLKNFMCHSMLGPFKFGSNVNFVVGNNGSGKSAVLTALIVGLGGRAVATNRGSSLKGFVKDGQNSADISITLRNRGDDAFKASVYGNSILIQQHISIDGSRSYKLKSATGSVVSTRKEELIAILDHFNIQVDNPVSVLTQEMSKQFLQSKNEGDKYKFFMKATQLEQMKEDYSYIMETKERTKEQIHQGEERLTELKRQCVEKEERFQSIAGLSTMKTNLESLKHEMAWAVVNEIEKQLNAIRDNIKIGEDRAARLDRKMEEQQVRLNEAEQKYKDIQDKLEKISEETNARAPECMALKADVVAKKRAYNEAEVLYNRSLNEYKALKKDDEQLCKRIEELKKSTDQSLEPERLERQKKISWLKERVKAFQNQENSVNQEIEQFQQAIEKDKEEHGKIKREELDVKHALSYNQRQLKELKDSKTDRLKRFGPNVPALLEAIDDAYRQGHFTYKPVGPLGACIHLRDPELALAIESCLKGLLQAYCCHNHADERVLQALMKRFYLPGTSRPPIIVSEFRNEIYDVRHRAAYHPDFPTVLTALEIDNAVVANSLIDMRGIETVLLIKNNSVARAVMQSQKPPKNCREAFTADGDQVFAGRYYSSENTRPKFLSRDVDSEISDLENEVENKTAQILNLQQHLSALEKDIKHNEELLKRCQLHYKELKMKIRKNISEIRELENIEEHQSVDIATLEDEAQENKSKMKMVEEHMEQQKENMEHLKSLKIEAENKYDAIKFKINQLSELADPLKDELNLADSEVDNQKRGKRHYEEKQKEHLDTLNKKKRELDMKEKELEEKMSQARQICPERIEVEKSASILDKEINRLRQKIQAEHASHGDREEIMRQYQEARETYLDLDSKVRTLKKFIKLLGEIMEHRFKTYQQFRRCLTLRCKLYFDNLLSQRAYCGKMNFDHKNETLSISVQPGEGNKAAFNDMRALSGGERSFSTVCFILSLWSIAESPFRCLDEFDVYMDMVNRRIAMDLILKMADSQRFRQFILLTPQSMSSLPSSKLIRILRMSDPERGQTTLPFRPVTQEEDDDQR
B3: Non-structural maintenance of chromosomes element 3 homolog (Homo sapiens), Q96MG7 (parent)
chain: B1 chain
partner: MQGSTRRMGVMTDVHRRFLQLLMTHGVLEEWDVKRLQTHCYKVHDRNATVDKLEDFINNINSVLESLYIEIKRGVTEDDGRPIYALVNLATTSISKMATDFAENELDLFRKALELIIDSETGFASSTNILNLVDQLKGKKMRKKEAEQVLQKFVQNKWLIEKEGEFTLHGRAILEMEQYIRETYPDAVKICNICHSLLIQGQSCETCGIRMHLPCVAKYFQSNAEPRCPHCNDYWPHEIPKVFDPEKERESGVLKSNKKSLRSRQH

Variants of: B1
Conditions: with nse4a_human NSMCE4A

Row | effect of a mutation on the interaction | Variant
1 | disrupting interaction strength | MLQKPRNRGRSGGQAERDRDWSHSGNPGASRAGEDARVLRDGFAEEAPSTSRGPGGSQGSQGPSPQGARRAQAAPAVGPRSQKQLELKVSELVQFLLIKDQKKIPIKRADILKHVIGDYKDIFPDLFKRAAERLQYVFGYKLVELEPKSNTYILINTLEPVEEDAEMRGDQGTPTTGLLMIVLGLIFMKGNTIKETEAWDFLRRLGVYLTKKHLIFGDPKKLITEDFVRQRYLEYRRIPHTDPVDYEFQWGPRTNLETSKMKVLKFVAKVHNQDPKDWPAQYCEALADEENRARPQPSGPAPSS [P209L]
2 | disrupting interaction strength | MLQKPRNRGRSGGQAERDRDWSHSGNPGASRAGEDARVLRDGFAEEAPSTSRGPGGSQGSQGPSPQGARRAQAAPAVGPRSQKQLELKVSELVQFLLIKDQKKIPIKRADILKHVIGDYKDIFPDLFKRAAERLQYVFGYKLVELEPKSNTYILINTLEPVEEDAEMRGDQGTPTTGLLMIVLGLIFMKGNTIKETEAWDFLRRLGVYPTKKHLIFGDPKKLITEDFVRQRYLEYRRIPHTDPVDYEFQWGPRTNLETSKMKVFKFVAKVHNQDPKDWPAQYCEALADEENRARPQPSGPAPSS [L264F]
3 | disrupting interaction strength | MLQKPRNRGRSGGQAERDRDWSHSGNPGASRAGEDARVLRDGFAEEAPSTSRGPGGSQGSQGPSPQGARRAQAAPAVGPRSQKQLELKVSELVQFLLIKDQKKIPIKRADILKHVIGDYKDIFPDLFKRAAERLQYVFGYKLVELEPKSNTYILINTLEPVEEDAEMRGDQGTPTTGLLMIVLGLIFMKGNTIKETEAWDFLRRLGVYPTKKHLIFGDPKKLITEDFVRQRYLEYRRIPHTDPVDYEFQWGPRTNLETSKMKVLKAVAKVHNQDPKDWPAQYCEALADEENRARPQPSGPAPSS [F266A]
4 | with no effect | MLQKPRNRGRSGGQAERDRDWSHSGNPGASRAGEDARVLRDGFAEEAPSTSRGPGGSQGSQGPSPQGARRAQAAPAVGPRSQKQLELKVSELVQFLAIKDQKKIPIKRADILKHVIGDYKDIFPDLFKRAAERLQYVFGYKLVELEPKSNTYILINTLEPVEEDAEMRGDQGTPTTGLLMIVLGLIFMKGNTIKETEAWDFLRRLGVYPTKKHLIFGDPKKLITEDFVRQRYLEYRRIPHTDPVDYEFQWGPRTNLETSKMKVLKFVAKVHNQDPKDWPAQYCEALADEENRARPQPSGPAPSS [L97A]

Variants of: B2
Conditions: with smc6_human SMC6, Q96SB8

Row | effect of a mutation on the interaction | Variant
5 | disrupting interaction strength | MLQKPRNRGRSGGQAERDRDWSHSGNPGASRAGEDARVLRDGFAEEAPSTSRGPGGSQGSQGPSPQGARRAQAAPAVGPRSQKQLELKVSELVQFLLIKDQKKIPIKRADILKHVIGDYKDIFPDLFKRAAERLQYVFGYKLVELEPKSNTYILINTLEPVEEDAEMRGDQGTPTTGLLMIVLGLIFMKGNTIKETEAWDFLRRLGVYPTKKHLIFGDPKKLITEDFVRQRYLEYRRIPHTDPVDYEFQWGPRTNLETSKMKVFKFVAKVHNQDPKDWPAQYCEALADEENRARPQPSGPAPSS [L264F]

Variants of: B3
Conditions: with nse1_human NSMCE1, Q8WV22

Row | effect of a mutation on the interaction | Variant
6 | with no effect | MLQKPRNRGRSGGQAERDRDWSHSGNPGASRAGEDARVLRDGFAEEAPSTSRGPGGSQGSQGPSPQGARRAQAAPAVGPRSQKQLELKVSELVQFLLIKDQKKIPIKRADILKHVIGDYKDIFPDLFKRAAERLQYVFGYKLVELEPKSNTYILINTLEPVEEDAEMRGDQGTPTTGLLMIVLGLIFMKGNTIKETEAWDFLRRLGVYPTKKHLIFGDPKKLITEDFVRQRYLEYRRIPHTDPVDYEFQWGPRTNLETSKMKVLKAVAKVHNQDPKDWPAQYCEALADEENRARPQPSGPAPSS [F266A]
7 | disrupting interaction strength | MLQKPRNRGRSGGQAERDRDWSHSGNPGASRAGEDARVLRDGFAEEAPSTSRGPGGSQGSQGPSPQGARRAQAAPAVGPRSQKQLELKVSELVQFLAIKDQKKIPIKRADILKHVIGDYKDIFPDLFKRAAERLQYVFGYKLVELEPKSNTYILINTLEPVEEDAEMRGDQGTPTTGLLMIVLGLIFMKGNTIKETEAWDFLRRLGVYPTKKHLIFGDPKKLITEDFVRQRYLEYRRIPHTDPVDYEFQWGPRTNLETSKMKVLKFVAKVHNQDPKDWPAQYCEALADEENRARPQPSGPAPSS [L97A]
8 | decreasing interaction strength | MLQKPRNRGRSGGQAERDRDWSHSGNPGASRAGEDARVLRDGFAEEAPSTSRGPGGSQGSQGPSPQGARRAQAAPAVGPRSQKQLELKVSELVQFLLIKDQKKIPIKRADILKHVIGDYKDIFPDLFKRAAERLQYVFGYKLVELEPKSNTYILINTLEPVEEDAEMRGDQGTPTTGLLMIVLGLIFMKGNTIKETEAWDFLRRLGVYLTKKHLIFGDPKKLITEDFVRQRYLEYRRIPHTDPVDYEFQWGPRTNLETSKMKVLKFVAKVHNQDPKDWPAQYCEALADEENRARPQPSGPAPSS [P209L]
9 | with no effect | MLQKPRNRGRSGGQAERDRDWSHSGNPGASRAGEDARVLRDGFAEEAPSTSRGPGGSQGSQGPSPQGARRAQAAPAVGPRSQKQLELKVSELVQFLLIKDQKKIPIKRADILKHVIGDYKDIFPDLFKRAAERLQYVFGYKLVELEPKSNTYILINTLEPVEEDAEMRGDQGTPTTGLLMIVLGLIFMKGNTIKETEAWDFLRRLGVYPTKKHLIFGDPKKLITEDFVRQRYLEYRRIPHTDPVDYEFQWGPRTNLETSKMKVFKFVAKVHNQDPKDWPAQYCEALADEENRARPQPSGPAPSS [L264F]

Variants of: B3
Conditions: with nse1_human NSMCE1, Q8WV22
Remark: another data set of the same source

Row | effect of a mutation on the interaction | Variant
10 | decreasing interaction strength | MLQKPRNRGRSGGQAERDRDWSHSGNPGASRAGEDARVLRDGFAEEAPSTSRGPGGSQGSQGPSPQGARRAQAAPAVGPRSQKQLELKVSELVQFLLIKDQKKIPIKRADILKHVIGDYKDIFPDLFKRAAERLQYVFGYKLVELEPKSNTYILINTLEPVEEDAEMRGDQGTPTTGLLMIVLGLIFMKGNTIKETEAWDFLRRLGVYPTKKHLIFGDPKKLITEDFVRQRYLEYRRIPHTDPVDYEFQWGPRTNLETSKMKVFKFVAKVHNQDPKDWPAQYCEALADEENRARPQPSGPAPSS [L264F]

— IntAct's records for PubMed 27427983
